# Reference: paper PMC11968938 (Scientific Reports, 2025)
# Where two headings read alike, the source gives them in different places.
# B1: BBH37_(131-312) (domain or fragment, B. burgdorferi B31, UniProt O50692 131-312, looked up)
# chain: FFPSTEEEKQADKAIKDIENLIGESGFPELIENVCSLKHEYTLIRSDFYDVITKIQNKKISLMKNSHNNRNKIRELVQLQNNLKIGDELDKIMGCIDTAEQEIRSAAFFFDEAKESLKEGIIKRLEKSKNRAASQLSKKALNRAEDALRCLENYSSKKGEAIGRRSFIKEVVEQAKNALSKS
# modifications: Cys165 in a disulfide bond with Cys165 of the other protomer
# B2: BBH37_(119-312) (domain or fragment, B. burgdorferi B31, UniProt O50692 119-312, looked up)
# chain: EHNQKKEIKEEDFFPSTEEEKQADKAIKDIENLIGESGFPELIENVCSLKHEYTLIRSDFYDVITKIQNKKISLMKNSHNNRNKIRELVQLQNNLKIGDELDKIMGCIDTAEQEIRSAAFFFDEAKESLKEGIIKRLEKSKNRAASQLSKKALNRAEDALRCLENYSSKKGEAIGRRSFIKEVVEQAKNALSKS
# modifications: Cys165 in a disulfide bond with Cys165 of the other protomer
# Columns and labels:
# crystal structure [1] = target: the molecule itself; test: crystal structure
# crystal structure [2] = target: the molecule itself; test: crystal structure; remark: listed apart in the source
Protein,stoichiometry N (crystal structure [1]),stoichiometry N (crystal structure [2])
B1,2,
B2,,2
